According to the nanobody polyreactivity screen of Harvey et al. (2022):

Experiment: yeast display, Sf9 membrane polyspecificity reagent, FACS + sequencing; frameworks hold sequencing errors
Outline: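 A synthetic nanobody library was expressed on Saccharomyces cerevisiae BJ5465 by galactose induction for 36–48 hours. The library was stained for 1 hour at 4 °C with 10% biotinylated, detergent-solubilized Sf9 membrane reagent and enriched with streptavidin microbeads before FACS. Low and high (top ~1%) gates were set on anti-HA fluorescence for expression and streptavidin fluorescence for reagent binding, and each polyreactivity label reflects the gate of origin.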

Sequence | polyreactivity (PSR sort gate)
QVQLVESGGGLVQAGGSLRLSCAASGFTRIYAMGWYRQAPGKEREMVAAISQRGGRTYYADSVKGRFTISRDNAKNTVSLQKNSLKQEDTAVYYCNSDLRSYNYPEYEYDYWGQGTQVTVSS | high polyreactivity
QVQLVESGGGLVQAGGSLRLSCAASGSTIPPYAMGWYRQAPGKERELVAAITSGGSTYYAESVKGRFTISRDNAKNTVYLQMNSLKPEDTAVYSCAASWDPWEYDYWGQGTQVTVSS | low polyreactivity
QVQLVESGGGLVQAGGSLRLSCAASGRISIKNAMGWYRQAPGQERELVAAIRWSADSTYYADSVKGRFTISRDNAKTTVYLQMNSLKPEDTAVYYCAATGRLRYYWGQGTQVNVSS | high polyreactivity
QVQLVESGGGLVQAGGSLRLSCAASGIIFFLYAMGWYRQAPGKERELVAAISSGGSTYYADSVKGRFTISRDNAKNTVYLQMNSLKPEDTAVYYCAVVGYASRYEKYYYWGQGTQVTVSS | high polyreactivity
QVQLVESGGGLVQAGGSLRLSCAASGRISLSNAMGWYRQAPGKEREFVAAITKRSDRTYYADSVKGRFTISRDNAKNTVSLQMNSLKPEDTAVYYCAAKPLFGTRDDYWGQGTQVTVSS | low polyreactivity
QVQLVESGGGLVQAGGSLRLSCAASGRIIYSYAMGWYRQAPGKERELVATITASGGRTYYADSVKGRFTISRDNAKNTVYLQMHSLKQEDSAVYYCNARYYGSFRRRYDYWGQGTQVTVSS | high polyreactivity
QVQLVESGGGLVQAGGSLRLSCAASGIIFYIYTMAWYRQAPGKERELVAAINRSGSRTYYADSVKGRFTISRDNAKNTVYLQMNSLKPEDTAVYYCAAGTGSRDDYWGQGTQVTVSS | high polyreactivity
QVQLVESGGGLVQAGGSLRLSCAASGFTFRTYAMGWYRQAPGKERELVAAITGSGGSTYYADSVKGRFTISRDNAKNTVYLQMNSLKPEDTAVYYCNAVERSAFRGVRFDYDYWGQGTQVTVSS | high polyreactivity
QVQLVESGGGLVQAGGSLRLSCAASGSTFNRYAMGWYRQAPGKERELVAAISGSGSSTYYADSVKGRFTISRDNAKNTVYLQMNSLKPEDTAVYYCAAVRYEYDYWGQGTQVTVSS | high polyreactivity
QVQLVESGGGLVQAGGSLRLSCAASGFTLRKYVMGWYRQAPGKERELVAAITSSASSTYYADTVKGRFTISRDNAKNTVYLQMNSMKPEDTAVYYCAARGRPYRGSYYWGQGTQVTVSS | high polyreactivity
QVQLVESGGGLVQAGGSLRLSCAASGSIFLYYVMGWYRKAPGKERELVAAITWDGGSTYYADSVKGRFTISRDNAKNTVYLQMNSLKPEDTAVYYCNKGFKLWPRYGYDYWGQGTQVTVSS | low polyreactivity
QVQLVESGGGLVQAGGSLRLSCAASGSIFVYYAMGWYRQAPGKERELVAAITETGGDTYYADSVKGRFTISRDNAKNTVYLQMNSLKPEDTAVYYCNTVRRSYWSWSTENSDYWGQGTQVTVSS | low polyreactivity
QVQLVESGGGLVQAGGSLRLSCAASGRIFRWYAMGWNRQAPGQERELVAAITRGDITNYADSVKGRFTISRDNAKNTVYLQMNSLKPEDTAVYYCNAQWYDIYDYWGQGSQVTVSS | high polyreactivity
QVQLVESGGGLVQAGGSLRLSCAASGSTFQYNAMGGYRQAPGKERELVASISWSGGSTYYADSVKGRFTISRDNAKNTVYLQMNSLKPEVTAVYYCAADWSDQRDYWGQGTQVTVSS | low polyreactivity
QVQLVETGGGLVQAGGSLRLSCAASGRIFQWYAMGWYRQAPGKERELVAAINNGGSTNYADSVKGRFTISRDNAKNTVYLQMNSLKPEDTAVYYCAAELTFVAQGWFVTYDYWGQGTQVTVSS | high polyreactivity
QVQLVESGGGLVQAGGSLRLSCAASGFTFSDYAMGSNRQAPGKERELVAAITSRTGTTYYADSVKWRFTISRDNAKNTVYLQMNSLKPEDTAVYYCNKVKFRSQDMDYWGQGTQVTVSS | high polyreactivity
QVQRVESGGGLVQAGGSLRLSCAASGSTFTRYGMGWYRQAPGKERELVAAISDRGVSTYYADSVKGRFTISRDNAKNTVYLQMNRMKPEDTAVYYCAAVFWVDILPGDYWGQGTQVTVSS | low polyreactivity
QVQLVESGGGLVQAGGSLRLSCAASGFIFRYYALGWYRQAPGKERELVAAIDYSGGSTNYADSVKGRFTISRDNAKNTVYLQMNSLKPEDTGVYYCATVSDNRYYYWGQGTQVTVSS | low polyreactivity
QVQLVESGGGLVQAGGSLRLICDASGSTFAVYTMGLYIQAPGTEREFVAAISSTGTCTYYADSVKGRFTISRDHAKNTVYLQKNSLKPEDTAVYYCAARWLGYRISYDYWGQGTQVTVSS | high polyreactivity
QVQLVESGGGLVQAGGSLRLSCAASGRIFTAYDMGWYRQAPGKERELVAAITRSSGSTYYADSVKGRFTISRDNAKNTVYLQMNSLKGEDTAVYYCATDGEFWGYDSWGQGTQVTVSS | low polyreactivity
QVQLVESGGGLVQAGGSLRLSCAASGIIFWWYTRGWYRQAPGKERELVAAISRGGNTNYADSVKGRFTISRDNAKNTVYLQMNSLKPEDTAGYYCAADRHYRFWQDDYWGQGTQVTVSS | high polyreactivity
QVQLVESGGGLVQAGGSLRLSCAASGFTFVYYAMGWYRQAPGKERELVAAISSGGRTYYADSVKGRFTISRDNAKNTVYLQMNSLKPEDTAGYYCNKKVGSYYRSYYYWGQGTQVTVSS | high polyreactivity

Sequence | polyreactivity (PSR sort gate)
QVQLVESGGGLVQAGGSLRLSCAASGRTFGRNAMGWYRQATGKERELVAPISRDGSTYYADSVKGRFTISRDNAKNTVYLQMNSLKPEDTAVYYCAADRPWYYTLTPIHGYDYWGQGTQVTVSS | low polyreactivity
QDHLVDSGGGLVQAGGSLRLSCDASGRIFRWYTMGWYRQAPGKERELVATITSSGITSYADSVKGRFTISRDNAKNTDYLQMNSLKPEDTAVYYCAADHYYYIHGYDYWGQGTQVTVSS | high polyreactivity
QVQLVESGGGVVQAGGSLRLSCAASGSIFYYYAMGWYRQAPGKERELVASITHTGGSTNYADSVKGRFTISRDNAKNTVYLQKNSLKPEDTAVYYCAAEYWNDNYSDPLYDYWGQGTQVTVSS | low polyreactivity
QVQLVESGGGLVQAGGSLRLSCAASGSTFTDYDMGWYRQAPGKERELVAAITSGGSTNYADSVKGRITISRDNAKNTVYLQMNSLKPEDTAVYYCAAADADRKYDYWGQGTQVTVSS | low polyreactivity
QVQLVESGGGLVQAGGSLRLSCAASGSIFGIYVMGWYRQAPGKERELVAAISDGGSTYYADSVKGRFTISRDNAKNTVYLQMNSLKPEDTAVYYCAAEVHGWYSYYYWGQGTQVTVSS | high polyreactivity
QVQLVESGGGLVQAGGTIRISSAPSGRTLGCNAMGRSRQAPGKEWELVSAISYSGGDTTYADSVKGRFTISRDKAKNTVYLQMNSLKPEDTAVYYCAARGDYYVYAYNRRFVYLGQGTQVTVSS | low polyreactivity
QVQLVESGGGLFQAGGSLRLSCAASGSTFAPYAMGWYRHATGKERELVAAISNSGGSTYYADSVKGRFTISRDDAKNTVYLQMNCLKPEATAVLYCATLKYPYATSQGYDFWGQCTQVTVSS | high polyreactivity
QVQLVESGGGLVQAGGSLRLSCAASGFTFYRYGMGWYRQAPGKERELVAAINNDGTTNYADSVKGRFTISRDNAKNTVYLQMNSLKPEDTAVYYCAADYYRGRYSSRYDYWGQGTQVTVSS | low polyreactivity
QVQLVESGGGLVQAGGSRRLSCAASGFFFRNYAMGWYRQAPGKEMELVAVITSSGGSTYYADSVKGRFTISRDNAKNTVYLQMNSLKPEDTAVYYCNKPGLRSGPRYDYWGQGTQVTVSS | high polyreactivity
QVQLVDSGGGLVQAGGSLRLSCAASGSTFYGYAMGWYRQAPGKERELVAAITSSGTRTYYADSVKGRITISRDNAKNSVYLQMNSLKPEDTAVYYCAADAPNFGLYRDKDYDYWGQGTQVTVSS | high polyreactivity
QVQLVESGGGLVQAGGTLRLSCAASGLISYFYGMGWYRQAPGKERELVAGIDTGSSTNYADSVKGRFTISRDNAKNTVYLQMNSLKPEDTAVYYCAADSVSKYGSDYWGQGTQVTVSS | low polyreactivity
QVQLVESGGGIVQAGGSLRLSCGASGSIFVTYTMGWYRQAPGKERELVAAITSDGRTYYADSVKGRFTISRDNAKNTVYLQMNCLKPEDTAVYYCAADSSGYYWFNYWGQGTQVTVSS | low polyreactivity
QVQLVESGGGLVQAGGSLRLSCAASGSIFRGNGMGWYRQAPGKERELVAAISRSGGRTYYADSVKGRFTISRDNAKNTVYLQMNSLKPEDTAVYYCNAARTYQYDYWGQGTQVTVSS | high polyreactivity
QVQLVESGGGLVQAGGSLRLSCAASGITFFDYAMGWYIQAPGKERELVAAIDLSDGRTYYADSVKGRFTISRDNAKNTVYLQMNSLKPEDTAVYYCARQHEDYVYYWYYWYDYDYWGQGTQVTVSS | low polyreactivity
QVQLVDSGGGLVQAGGSLPLSCAASGRIIAHYALGWYRQAPGKERELVAAIRRSGVSTYYADSVKGRFTISRDNANNTVYLQMHSLKPEDTAVYYCNARAYVSPYDYWGHGTQVTVSS | low polyreactivity
QVQIEESGGGLVQAGGSLRLSCAASGNIFPGNDMGWYRQAPRKERELVAAITSRDGSTYYADSVKGRFTISRDNAKNTVYLQMNSLKPEDTAVYYCNTDPDLYYLATAGYWSHDYWGQGTQVTVSS | low polyreactivity
QVQLVESGGGLVQAGGSLRLSCAASGRIFLSYAMGWYRQAPGKERELVAAISQSGSSKYYADSVKGRFTISRDNAKNTVYLQMNSLKPEDTAVYYCAARTGRKYYYWGQGTQVTVST | high polyreactivity
QVQLVESGGGLVQAGGRLRLSCAASGSTFGTYAMGWYRHAPGKERELVAAITRSGGSTYYADSVKGRFTISRDNAKNTVYLQMNSLKPDDTAVFYCAAVSKGYYYWGQGTQVTVSS | high polyreactivity
QVQLVESGGGLVQAGGSLRLSCAASGSIFGGYAMGWYRQAPGKERELVARIRGSTGSTYYADSVKGRFTISRDNAKNTVYFQMNSLKPEDTAVYYCNARYKYYRGSGMDSWGQGTQVTVSS | high polyreactivity
QVQLVETGGGLVQAGGSLRLSCAASGFTFYGYAMGWYRQAPGKERELVAAISSSGGRTYYADSVKGRFTISRDNAKNTVYLQMNSLKPEDTAVYYCAVDYYGKVGDDYLGQGTQVTVSS | low polyreactivity
QVQLVESGGGLVQAGGSLRLSCAASGITFGRNTMGWYRQAPGKERELVASINKSGGSTYYADSVKGRFTISRDNAKNTVYLQMNSLKPEDTAVYYCAARTGWPRVGFLYPAHVGFDYWGQGTQVTVSS | low polyreactivity
